Changes are numbered by the printed parent chain.
B1: mAb 173 (antibody, V domains shown)
VH: EVQLVESGGGLVQPGRSLRLSCAASGFTFDDYTMHWVRQVPGKGLEWVSDISWNSGSVGYADSVKGRFTISRDNAKNSLYLQMNSLRAEDTALYYCVKDSSGYGHYFHYYMDVWGKGTTVTVSS
VL: DIQMTQSPSSLSASVGDRVTITCRASQSISNYLNWYQVKPGKAPKVLIYAASSLQSGVPSRFSGSGSGTDFTLTISSLQPEDFVSYYCHQSYNTPITFGQGTRLEIK
B2: mAb 174 (antibody, V domains shown)
VH: EVQLVESGGGLVQPGGSLRLSCAASGFTFSSNWMSWVRQAPGKGLEWVANIKQDGSEKYSVDSVKGRFTISRDNAKNSLYLQMNSLRAEDTAVYYCARDRSRNYYWYFDLWGRGTLVTVSS
VL: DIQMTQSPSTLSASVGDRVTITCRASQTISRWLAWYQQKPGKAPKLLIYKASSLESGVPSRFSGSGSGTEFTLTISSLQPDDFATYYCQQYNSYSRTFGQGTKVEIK
B3: mAb 175 (antibody, V domains shown)
VH: B2 VH with Q3E, S60Y, Q82K, R100C, R102S, Y104W
VL: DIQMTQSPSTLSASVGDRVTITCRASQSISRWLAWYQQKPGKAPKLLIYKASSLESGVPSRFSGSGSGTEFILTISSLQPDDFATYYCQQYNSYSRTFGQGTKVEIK
B4: mAb 176 (antibody, V domains shown)
VH: EVELVESGGGLVQPGRSLRLSCAASGFKFDDYTMHWVRLPPGKGLEWVSGISWNSGTIDYGDSVKGRFTISRDNAKNSLYLQMNSLRVEDTALYYCAKDTSGYGHYFYYYMDVWGKGTTVTVSS
VL: DIQMTQSPSSLSASIGDRVSITCRTSQIINNYLNWYQQKPGKAPKVLIYSASSLQSGVPSRFSGSGSGTDFTLTINSLQPEDFATYYCQQSYNFPITFGQGTRLELK
B5: mAb 177 (antibody, V domains shown)
VH: EVQLVESGGGLVQPGMSLRLSCAASGFTFDDYTMHWVRQSPGKGLEWVAGISWNSGTIGYGDSMKGRFTISRDNAKNSLDLQMNSLRVEDTALYYCAKDTSGYGHYYYYFMDVWGKGTTVTVSS
VL: B4 VL with V46L, I75L, N76S, Y87F
B6: mAb 178 (antibody, V domains shown)
VH: B1 VH with V40A, S57T, V58I, F107Y, H108K
VL: DIQMTQSPSSLSASVGDRVTITCRASQSISNYLNWYQQKAGKVPKVLIYGSSSLQSGVPSRFSGSGSGTDFTLTISSLQPEDFASYYCQQTYSSPLTFGGGTKVDFK
B7: mAb 179 (antibody, V domains shown)
VH: B1 VH with V40T, V58I, S78T, F107L, H108Y
VL: DIQMTQSPSSLSASVGDRVTITCRASQSIRNYLNWYQQSPGRAPKLLIFSASSLQSGVPSRFSGSGSGTDFTLTISSLQPEDFVTYYCQQRYSTPITFGQGTRLEIK
B8: mAb 180 (antibody, V domains shown)
VH: B1 VH with Q3N, D50N, V58L, N77D, A88V, V97A, F107N, H108S
VL: B7 VL with S39K, R42K, L46V, F49Y, V84A, T85S, Y86F, R91T
B9: mAb 54 (antibody, V domains shown)
VH: EVQLEESGGGLVQPGGSLRLSCAASGFTFSRYSMNWVRQAPGKGLEWFSYISSSSRTIYYADSVKGRFTMSRDNAKNSLYLQMNSLRDEDTAVYFCARGDYYDSEGMDVWGKGTTVTVSS
VL: DIQMTQSPSTLSASVGDRVTITCRASQTITTWLAWYQQKPGKAPKLLIYKASTLESGVPSRFSGSGSGTEFTLTISSLQPDDFATYHCQQYKTFSYTFGQGTKLDIK
B10: mAb 55 (antibody, V domains shown)
VH: QVQLEQSGAEVKKPGASVKVSCKTSGYIFANYDINWVRQATGQGLEWMGWMNPKSGKAGYAQKFQGRVTMTSNTPINTAYMELSSLRSEDTAVYYCAREGHYDFWRGFYSFDYWGQGILVTVSS
VL: DIQMTQSPSSLSASVGDRVTITCRASQGIRNDLGWYQQKPGKAPKRLIYTASSLQSGVPSRFSGSGSGTEFTLTISSLQPEDFATYFCLQYNTYPYTFGQGTKLEIK
B11: mAb 66 (antibody, V domains shown)
VH: QVQLVQSGAEVKKPGASVKVSCKASGYTVTGYYMHWVRQAPGQGLEWMGWINPNSGGTNFAQNFQGRVTMTRDTSISTFYMDLSRLRSDDTAVYYCARGGAPVSYWFFDLWGRGTLVTVSS
VL: DIQMTQSPSSLSASVGDRVTITCRASQSISRYLNWYQQKPGKAPKVLIYNTSSLKSGVPSRFSGSGSGTDFTLTISSLQPEDFATLYCQQSHSTPFTFGPGTKVDIK
B12: mAb 67 (antibody, V domains shown)
VH: EVQLVESGGDLVQPGRSLRLSCAASGFTFDDCVIHWVRQAPGKGLEWVSGITWNSGRIGYADSVKGRFTISRDNAKNSLYLQMNSLRVEDTALYYCAKEGNYDFWSTYYRGYFDLWGRGTLVTVSS
VL: B10 VL with K42I, T50A, S56G, S60L, F87Y, Y91H, T93S
B13: mAb 68 (antibody, V domains shown)
VH: EVQLVDSGGGLVQPGGSLRLSCSGSGFTFSSYWMSWVRQAPGKGLEWVANIKQDGSQKYYVDSVKGRFTISRDNVKNSLYLQMNSLRVEDTAVYYCARDESSSWYWYFDLWGRGTLVTVSS
VL: DIQMTQSPSTLSASVGDRVTLTCRASQNIVKWLAWYQQKPGKAPKLLIYKASSLESGVPSWFSGSGSGTEFTLTINSLQPDDFATYYCQQYYTYSRTFGQGTKVEIK
B14: mAb 71 (antibody, V domains shown)
VH: QVQLVQSGAEVRKPGASVKVSCKASGYTFTKYDVNWVRQAPGQGLEWMGWMNSNNGNIGYAQKFQGRVTMTRKTSISTAYMELSSLRSEDTAVYYCAREGHYDFWRGFYNFDYWGQGTLVTVSS
VL: B10 VL with G28D, R30K, T50A, F87Y, Y91H, T93F, Y96I, K103R
B15: mAb 72 (antibody, V domains shown)
VH: B13 VH with S23A, G24A, Q57E, Y80S, Q82E, V88A, V93L
VL: B13 VL with L21I, N28S, V30S, S56N, W61R, N76S, Y92S, T93S
B16: mAb 43 (antibody, V domains shown)
VH: QAQLVQSGSELKKPGASVKVSCKASGYTFTKHSMNWVRQAPGQGLEWMGWINTNTGNPMYAQGFTGRFVFSLDTSVTTAYLQISSLKAEDTAVYYCAREGDYDFWSGFFNFDYWGQGTLVTVSS
VL: B10 VL with T50A, T69A, F87Y, Y91H, T93S, Y96R, L104V
B17: mAb 73 (antibody, V domains shown)
VH: EVELVESGGGLVQPGRSLRLSCAASGFTFDDKVMHWVRQAPGKGLEWVSCINWNSGHIGYADSVKGRFTISRDNARTSLYLQMNSLRPEDTALYYCVREGNYDFWSGYYRGFFDLWGRGTLVTVSS
VL: B10 VL with T50A, S56G, F87Y, Y91H, N92T, T93S, Y96F
B18: mAb 74 (antibody, V domains shown)
VH: EVQLVESGGGLVQPGRSLRLSCAASGFTFADYVMHWVRQAPGKGLEWVSGINWNNARIGYVGSVKGRFTISRDNAKNSLYLQMTSLRVEDTALYHCVREGNFDFWSAYYRGFLDLWGRGTLVTVSS
VL: B10 VL with N31S, T50G, S56G, F87Y, Y91H, T93S
B19: mAb 77 (antibody, V domains shown)
VH: B2 VH with S31N, N32Y, S60Y, K65R, N77K, R100N, R102N, N103Y, Y104A, L110I
VL: B13 VL with A13V, L21I, N28S, V30R, Y49F, W61R, N76S, Y92D
B20: mAb 78 (antibody, V domains shown)
VH: B2 VH with N32Y, S60Y, R100N, R102P, N103S, Y104F
VL: B13 VL with L21I, N28S, I29L, V30S, K31R, W61R, N76S
B21: mAb 79 (antibody, V domains shown)
VH: B11 VH with T28I, Q43H, S84N, R87T
VL: B11 VL with S28N, S30N, R31S, Q37H, S53T, D70Y, L86F
B22: mAb 85 (antibody, V domains shown)
VH: B11 VH with S84N
VL: B11 VL with A84G, L86F

Target: human CD3 (human, UniProt P07766 23-207; P04234 22-171; P09693 23-182)
Sequence (P07766 23-207, chain 1 of 3): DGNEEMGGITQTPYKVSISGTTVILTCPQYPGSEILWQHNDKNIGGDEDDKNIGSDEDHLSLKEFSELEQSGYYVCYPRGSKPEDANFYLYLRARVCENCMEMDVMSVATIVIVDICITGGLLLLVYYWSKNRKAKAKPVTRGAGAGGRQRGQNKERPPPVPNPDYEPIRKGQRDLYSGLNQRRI
Sequence (P04234 22-171, chain 2 of 3): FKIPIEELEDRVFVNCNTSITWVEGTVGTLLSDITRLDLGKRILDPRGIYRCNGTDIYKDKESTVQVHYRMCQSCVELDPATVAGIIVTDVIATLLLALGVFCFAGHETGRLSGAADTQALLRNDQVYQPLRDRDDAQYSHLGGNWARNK
Sequence (P09693 23-182, chain 3 of 3): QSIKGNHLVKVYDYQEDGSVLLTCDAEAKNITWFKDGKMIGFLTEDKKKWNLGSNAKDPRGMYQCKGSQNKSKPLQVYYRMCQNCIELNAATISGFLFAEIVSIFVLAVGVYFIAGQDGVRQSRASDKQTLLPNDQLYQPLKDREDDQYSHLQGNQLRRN
Assay: cell-based or functional assay

Going from B1 to B2, the “CD4 EC50 (nM); CD69/CD25 on human T cells, plate-coated antibody” value (“CD4 EC50 (nM); CD69/CD25” for short) rises from 12.5 nM to 19.5 nM (1.6-fold).

Compared with B3, B4 is 3.4-fold lower in “CD4 EC50 (nM); CD69/CD25” value: 21.6 nM for the first, 6.38 nM for the second.

B5 and B6 are within 1.5-fold of each other in “CD4 EC50 (nM); CD69/CD25” value: 14.3 nM for the first, 12.6 nM for the second.

Going from B7 to B8, the “CD4 EC50 (nM); CD69/CD25” value falls from 10.4 nM to 6.54 nM (1.6-fold).

First: B9
Second: B10
The “CD4 EC50 (nM); CD69/CD25” value of the first is 1.6-fold higher: 13.3 nM for the first, 8.54 nM for the second.

Going from B11 to B12, the “CD4 EC50 (nM); CD69/CD25” value rises from 13 nM to 22 nM (1.7-fold).

Going from B13 to B14, the “CD4 EC50 (nM); CD69/CD25” value rises from 12.5 nM to 19.3 nM (1.5-fold).

First: B15
Second: B16
The “CD4 EC50 (nM); CD69/CD25” value of the first is 1.5-fold lower: 16.4 nM for the first, 24.6 nM for the second.

B17 and B18 are within 1.5-fold of each other in “CD4 EC50 (nM); CD69/CD25” value: 24.8 nM for the first, 20.9 nM for the second.

B19 and B20 are within 1.5-fold of each other in “CD4 EC50 (nM); CD69/CD25” value: 12.9 nM for the first, 12.2 nM for the second.

B21 and B22 are within 1.5-fold of each other in “CD4 EC50 (nM); CD69/CD25” value: 10.4 nM for the first, 9.43 nM for the second.

First: B1
Second: B2
The “CD8 EC50 (nM); CD69/CD25 on human T cells, plate-coated antibody” value (“CD8 EC50 (nM); CD69/CD25” for short) of the first is 1.6-fold lower: 12.3 nM for the first, 19.4 nM for the second.

Going from B3 to B4, the “CD8 EC50 (nM); CD69/CD25” value falls from 21.2 nM to 6.37 nM (3.3-fold).

B5 and B6 are within 1.5-fold of each other in “CD8 EC50 (nM); CD69/CD25” value: 14.2 nM for the first, 12.6 nM for the second.

Compared with B7, B8 is 1.5-fold lower in “CD8 EC50 (nM); CD69/CD25” value: 9.87 nM for the first, 6.57 nM for the second.

Going from B9 to B10, the “CD8 EC50 (nM); CD69/CD25” value falls from 15.2 nM to 8.91 nM (1.7-fold).

Compared with B11, B12 is 1.6-fold higher in “CD8 EC50 (nM); CD69/CD25” value: 13.2 nM for the first, 21.3 nM for the second.

First: B13
Second: B14
The “CD8 EC50 (nM); CD69/CD25” value of the first is 1.5-fold lower: 12.6 nM for the first, 19.2 nM for the second.

B15 and B16 are within 1.5-fold of each other in “CD8 EC50 (nM); CD69/CD25” value: 18.2 nM for the first, 25.6 nM for the second.

B17 and B18 are within 1.5-fold of each other in “CD8 EC50 (nM); CD69/CD25” value: 23 nM for the first, 19.6 nM for the second.

B19 and B20 are within 1.5-fold of each other in “CD8 EC50 (nM); CD69/CD25” value: 13.1 nM for the first, 12.2 nM for the second.

B21 and B22 are within 1.5-fold of each other in “CD8 EC50 (nM); CD69/CD25” value: 11 nM for the first, 10.3 nM for the second.
